Key:
HLA-C*14:02 = test: IEDB peptide-MHC binding, purified MHC/direct/fluorescence; filed as Kd, often an IC50 or EC50 that approximates it; ≥ and ≤ were set here for values at or beyond the usual limits of such assays; settings: source organism: Human immunodeficiency virus 1
HLA-B*08:01 [1] = test: IEDB peptide-MHC binding, purified MHC/competitive/fluorescence; ≥ and ≤ were set here for values at or beyond the usual limits of such assays
HLA-A*24:02 [2] = test: as above
HLA-B*07:02 [3] = test: as above
HLA-A*02:01 [4] = test: as above
HLA-C*12:03 = test: IEDB peptide-MHC binding, purified MHC/direct/fluorescence; filed as Kd, often an IC50 or EC50 that approximates it; ≥ and ≤ were set here for values at or beyond the usual limits of such assays
HLA-B*58:01 = test: as above
HLA-B*44:02 = test: as above
HLA-B*07:02 [5] = test: as above
HLA-C*05:01 = test: as above
HLA-A*31:01 = test: as above
HLA-B*40:01 = test: as above; settings: source organism: West Nile virus
HLA-B*57:01 = test: as above
HLA-A*03:01 [6] = test: as above
HLA-A*11:01 = test: as above
HLA-B*27:05 = test: as above
HLA-B*15:01 [7] = test: as above
HLA-B*15:09 = test: as above; settings: source organism: West Nile virus strain PTRoxo
HLA-B*46:01 = test: as above
HLA-B*18:01 = test: as above
HLA-B*48:01 = test: as above; settings: source organism: West Nile virus
HLA-B*15:01 [8] = test: IEDB peptide-MHC binding, purified MHC/competitive/fluorescence; ≥ and ≤ were set here for values at or beyond the usual limits of such assays
HLA-A*29:02 = test: IEDB peptide-MHC binding, purified MHC/direct/fluorescence; filed as Kd, often an IC50 or EC50 that approximates it; ≥ and ≤ were set here for values at or beyond the usual limits of such assays; settings: source organism: Yellow fever virus 1899/81
HLA-A*69:01 [9] = test: as above; settings: source organism: Yellow fever virus 1899/81
HLA-A*01:01 [10] = test: as above
HLA-A*03:01 [11] = test: IEDB peptide-MHC binding, purified MHC/competitive/fluorescence; ≥ and ≤ were set here for values at or beyond the usual limits of such assays; settings: source organism: Vaccinia virus WR
HLA-A*02:01 [12] = test: IEDB peptide-MHC binding, purified MHC/competitive/fluorescence; filed as Kd, often an IC50 or EC50 that approximates it; ≥ and ≤ were set here for values at or beyond the usual limits of such assays
HLA-A*02:06 = test: as above
HLA-A*69:01 [13] = test: as above; settings: source organism: Human immunodeficiency virus 1
HLA-A*02:16 = test: as above; settings: source organism: Human immunodeficiency virus 1
HLA-A*02:03 = test: as above; settings: source organism: Human immunodeficiency virus 1
HLA-A*02:12 = test: as above; settings: source organism: Human immunodeficiency virus 1
HLA-A*02:19 = test: as above; settings: source organism: Human immunodeficiency virus 1
HLA-A*02:11 = test: as above; settings: source organism: Human immunodeficiency virus 1
HLA-C*07:02 = test: IEDB peptide-MHC binding, purified MHC/direct/fluorescence; filed as Kd, often an IC50 or EC50 that approximates it; ≥ and ≤ were set here for values at or beyond the usual limits of such assays; settings: source organism: Influenza A virus (A/Fort Monmouth/1/1947-mouse adapted(H1N1))
HLA-B*08:02 = test: as above; settings: source organism: Influenza A virus(A/swine/Henan/5/2004(H9N2))
HLA-A*02:01 [14] = test: as above; settings: source organism: Influenza A virus (A/quail/Hong Kong/FY298/00(H9N2))
HLA-A*24:02 [15] = test: as above; settings: source organism: Influenza A virus (A/quail/Hong Kong/FY298/00(H9N2))
HLA-A*26:01 = test: as above; settings: source organism: Influenza A virus(A/swine/Henan/5/2004(H9N2))
HLA-A*24:03 = test: as above; settings: source organism: Influenza A virus (A/quail/Hong Kong/FY298/00(H9N2))
HLA-B*15:17 = test: IEDB peptide-MHC binding, purified MHC/competitive/fluorescence; filed as Kd, often an IC50 or EC50 that approximates it; ≥ and ≤ were set here for values at or beyond the usual limits of such assays; settings: source organism: Influenza A virus (A/Fort Monmouth/1/1947-mouse adapted(H1N1))
HLA-B*08:01 [16] = test: as above; settings: source organism: Influenza A virus (A/Fort Monmouth/1/1947-mouse adapted(H1N1))
HLA-A*68:02 = test: as above; settings: source organism: Influenza A virus (A/Fort Monmouth/1/1947-mouse adapted(H1N1))
HLA-A*01:01 [17] = test: as above; settings: source organism: Influenza A virus (A/Harbin/1/1988(H1N2))
[18] = source organism: Zaire ebolavirus
[19] = source organism: West Nile virus
[20] = source organism: Vaccinia virus Copenhagen
[21] = source organism: Yellow fever virus 1899/81
[22] = source organism: Vaccinia virus WR
[23] = source organism: Human immunodeficiency virus 1
[24] = source organism: Influenza A virus (A/quail/Hong Kong/FY298/00(H9N2))
[25] = source organism: Influenza A virus (A/Hong Kong/532/1997(H5N1))

Sequence: AFHHVAREL
- Kd (HLA-C*14:02): ≤ 0.001 µM

Sequence: ARKHHTKID
- IC50 (HLA-B*08:01 [1]; source organism: Variola virus): 41.7 µM
- IC50 (HLA-A*24:02 [2]; source organism: Variola virus): 0.025 µM

Sequence: FPQLSAIAL
- IC50 (HLA-B*07:02 [3]; [18]): 13.6 µM
- IC50 (HLA-B*08:01 [1]; [18]): ≥ 129 µM
- IC50 (HLA-A*02:01 [4]; [18]): ≥ 179 µM
- IC50 (HLA-A*24:02 [2]; [18]): 17.8 µM

Sequence: FVDVGVSAL
- Kd (HLA-C*12:03; [19]): ≥ 20 µM
- Kd (HLA-B*58:01; [19]): ≥ 20 µM
- Kd (HLA-B*44:02; [19]): ≥ 20 µM
- Kd (HLA-B*07:02 [5]; [19]): ≥ 20 µM
- Kd (HLA-C*05:01; [19]): ≤ 0.001 µM
- Kd (HLA-A*31:01; [19]): ≥ 20 µM
- Kd (HLA-B*40:01): ≥ 20 µM
- Kd (HLA-B*57:01; [19]): ≥ 20 µM
- Kd (HLA-A*03:01 [6]; [19]): ≥ 20 µM
- Kd (HLA-A*11:01; [19]): ≥ 20 µM
- Kd (HLA-B*27:05; [19]): ≥ 20 µM
- Kd (HLA-B*15:01 [7]; [19]): ≥ 20 µM
- Kd (HLA-B*15:09): 2.2 µM
- Kd (HLA-B*46:01; [19]): ≥ 20 µM
- Kd (HLA-B*18:01; [19]): ≥ 20 µM
- Kd (HLA-B*48:01): ≥ 20 µM

Sequence: IFRLMRTNF
- IC50 (HLA-B*07:02 [3]; [18]): 9.03 µM
- IC50 (HLA-B*08:01 [1]; [18]): 55.2 µM
- IC50 (HLA-A*24:02 [2]; [18]): 0.0398 µM
- IC50 (HLA-B*15:01 [8]; [18]): 2.18 µM

Sequence: LAKAIITPI
- IC50 (HLA-B*07:02 [3]; [20]): 56.1 µM
- IC50 (HLA-B*08:01 [1]; [20]): ≥ 138 µM
- IC50 (HLA-A*02:01 [4]; [20]): 13.7 µM
- IC50 (HLA-A*24:02 [2]; [20]): 6.28 µM
- IC50 (HLA-B*15:01 [8]; [20]): 24.5 µM

Sequence: RADEINAIL
- Kd (HLA-B*44:02; [21]): ≥ 20 µM
- Kd (HLA-C*05:01; [21]): ≤ 0.001 µM
- Kd (HLA-A*29:02): ≥ 20 µM
- Kd (HLA-A*31:01; [21]): ≥ 20 µM
- Kd (HLA-B*57:01; [21]): ≥ 20 µM
- Kd (HLA-A*03:01 [6]; [21]): ≥ 20 µM
- Kd (HLA-A*11:01; [21]): ≥ 20 µM
- Kd (HLA-A*69:01 [9]): ≥ 20 µM
- Kd (HLA-B*27:05; [21]): ≥ 20 µM
- Kd (HLA-B*15:01 [7]; [21]): ≥ 20 µM
- Kd (HLA-B*46:01; [21]): ≥ 20 µM
- Kd (HLA-A*01:01 [10]; [21]): ≥ 20 µM
- Kd (HLA-B*18:01; [21]): ≥ 20 µM

Sequence: RLPKRSVML
- IC50 (HLA-B*07:02 [3]; [22]): 7.67 µM
- IC50 (HLA-B*08:01 [1]; [22]): 15.2 µM
- IC50 (HLA-A*02:01 [4]; [22]): 2.65 µM
- IC50 (HLA-A*03:01 [11]): 34.1 µM
- IC50 (HLA-A*24:02 [2]; [22]): 0.0521 µM
- IC50 (HLA-B*15:01 [8]; [22]): 12.7 µM

Sequence: SLADQLIHL
- Kd (HLA-A*02:01 [12]; [23]): 0.0425 µM
- Kd (HLA-A*02:06; [23]): ≤ 0.0001 µM
- Kd (HLA-A*69:01 [13]): 0.277 µM
- Kd (HLA-A*02:16): 0.0006 µM
- Kd (HLA-A*02:03): 0.00086 µM
- Kd (HLA-A*02:12): 0.00285 µM
- Kd (HLA-A*02:19): 0.00467 µM
- Kd (HLA-A*02:11): 0.000145 µM

Sequence: SYLIRALTL
- Kd (HLA-C*07:02): 0.055 µM
- Kd (HLA-B*58:01; [24]): ≥ 20 µM
- Kd (HLA-B*08:02): ≥ 20 µM
- Kd (HLA-B*07:02 [5]; [24]): ≥ 20 µM
- Kd (HLA-A*31:01; [24]): ≥ 20 µM
- Kd (HLA-A*02:01 [14]): ≥ 20 µM
- Kd (HLA-B*57:01; [24]): ≥ 20 µM
- Kd (HLA-A*03:01 [6]; [24]): ≥ 20 µM
- Kd (HLA-A*11:01; [24]): ≥ 20 µM
- Kd (HLA-B*27:05; [24]): ≥ 20 µM
- Kd (HLA-A*24:02 [15]): 0.0039 µM
- Kd (HLA-B*15:01 [7]; [24]): ≥ 20 µM
- Kd (HLA-A*01:01 [10]; [24]): ≥ 20 µM
- Kd (HLA-A*26:01): ≥ 20 µM
- Kd (HLA-B*18:01; [24]): ≥ 20 µM
- Kd (HLA-A*24:03): ≤ 0.001 µM
- Kd (HLA-B*15:17): 0.196 µM
- Kd (HLA-B*08:01 [16]): 1.72 µM
- Kd (HLA-A*68:02): 1.19 µM
- Kd (HLA-A*02:06; source organism: Influenza A virus (A/Fort Monmouth/1/1947-mouse adapted(H1N1))): 1.41 µM

Sequence: YLMAWKQVL
- Kd (HLA-C*12:03; [25]): 0.022 µM
- Kd (HLA-A*02:01 [12]; [25]): 0.0004 µM

Sequence: YVSVVSSHY
- Kd (HLA-A*01:01 [17]): 0.549 µM

From the Immune Epitope Database (IEDB)
